Experimental data reported in the supplement of paper PMC7877785.
± gives the uncertainty stated by the source.

Test: self-splicing fitness, log relative to wild type (ln ratio); higher = more splicing; Tetrahymena group I intron in knt gene, E. coli kanamycin selection, DiMSum; sequences stand for … in CUCUCU…GGAGGGAAAAGUUAUCAGGCAUGCACCUGGUAGCUAGUCUUUAAACCAAUAGAUUGCAUCGGUUUAAAAGGCAAGACCGUCAAAUUGCGGGAAAGGGGUCAACAGCCGUUCAGUACCAAGUCUCAGGGGAAACUUUGAGAUGGCCUUGCAAAGGGUAUGGUAAUAAGCUGACGGACAUGGUCCUAACCACGCAGCCAAGUCCUAAGUCAACAGAUCUUCUGUUGAUAUGGAUGCAGUUCACAGACUAAAUGUCGGUCGGGGAAGAUGUAUUCUUCUCAUAAGAUAUAGUCGGACCUCUCCUUAAUGGGAGCUAGCGGAUGAAGUGAUGCAACACUGGAGCCGCUGGGAACUAAUUUGUAUGCGAAAGUAUAUUGAUUAGUUUUGGAGUACUCGUGGUCG
In short: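 Six replicate transformations of E. coli BL21(DE3) with a pET-22b(+) library were grown overnight at 37°C or 30°C. The library randomised all eight P1ex-region intron nucleotides, the intron lying in the knt kanamycin-resistance gene, and plates were LB agar with or without 25 μg/mL kanamycin plus 100 μg/mL carbenicillin, 50 μM IPTG and 0.2% rhamnose. Pooled colonies were amplicon-sequenced on an Illumina HiSeq 2500, and fitness is the DiMSum error-weighted combination of wild-type-normalised replicate fold changes, kanamycin versus none.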

Row | Sequence | self-splicing fitness (ln) (30 °C) | self-splicing fitness (ln) (37 °C)
1 | CAAAAGCAAUAUUACGACGU | -0.652 ± 0.066 | 0.0132 ± 0.08
2 | CAAGAGCAAUAUUACGUUCG | -1.27 ± 0.089 | -0.199 ± 0.11
3 | AUCCAGCAAUAUUACGGUCA | -0.209 ± 0.065 | 0.168 ± 0.072
4 | ACCCAGCAAUAUUACGAACC | -2.19 ± 0.15 | -0.993 ± 0.15
5 | CAAGAGCAAUAUUACGGCAU | -3.14 ± 0.23 | -2.02 ± 0.21
6 | UACGAGCAAUAUUACGAAUA | -3.28 ± 0.47 | -2.87 ± 0.48
7 | UUAGAGCAAUAUUACGGUGG | -1.95 ± 0.12 | -0.679 ± 0.13
8 | CGAAAGCAAUAUUACGAUCC | -1.03 ± 0.16 | -0.798 ± 0.17
9 | GAUCAGCAAUAUUACGGGAA | -0.882 ± 0.13 | -1.04 ± 0.13
10 | CAGCAGCAAUAUUACGGUCU | -2.87 ± 0.13 | -0.712 ± 0.1
11 | GGGGAGCAAUAUUACGCUGC | -2.22 ± 0.45 | 
12 | GAUGAGCAAUAUUACGGACC | -0.753 ± 0.19 | -0.541 ± 0.22
13 | CCAGAGCAAUAUUACGAUAG | -1.42 ± 0.082 | -1 ± 0.12
14 | GCAGAGCAAUAUUACGGUGC | -2.67 ± 0.19 | -1.9 ± 0.24
15 | GCCUAGCAAUAUUACGGGGA | -0.34 ± 0.067 | -0.0121 ± 0.09
16 | AUUCAGCAAUAUUACGGACG | -0.626 ± 0.08 | -0.168 ± 0.098
17 | GUCAAGCAAUAUUACGGUGC | -2.35 ± 0.12 | -1.72 ± 0.18
18 | AACGAGCAAUAUUACGACUG | -2.12 ± 0.16 | -0.348 ± 0.15
19 | UCGCAGCAAUAUUACGAUAU | -3.68 ± 0.3 | -2.41 ± 0.27
20 | GGCGAGCAAUAUUACGCAGG | -2.43 ± 0.23 | -2.75 ± 0.33
21 | GCGAAGCAAUAUUACGGUGU | -3.59 ± 0.14 | -2.66 ± 0.13
22 | UGGAAGCAAUAUUACGUAUG | -1.96 ± 0.16 | -0.289 ± 0.14
23 | AAGUAGCAAUAUUACGGAAA | -2.49 ± 0.3 | -1.84 ± 0.24
24 | UUUGAGCAAUAUUACGGUAG | -2.82 ± 0.39 | -2.41 ± 0.36
25 | UAAAAGCAAUAUUACGAGUA | -1.26 ± 0.068 | -0.418 ± 0.082

Row | Sequence | self-splicing fitness (ln) (30 °C) | self-splicing fitness (ln) (37 °C)
26 | CUAAAGCAAUAUUACGCUAC | -3.59 ± 0.37 | -2.59 ± 0.26
27 | GGGAAGCAAUAUUACGUUUC | -3.58 ± 0.19 | -2.19 ± 0.29
28 | GUUAAGCAAUAUUACGCGUC | -3.23 ± 0.26 | -1.96 ± 0.2
29 | GAUCAGCAAUAUUACGACAC | 0.702 ± 0.14 | 0.591 ± 0.17
30 | CUGUAGCAAUAUUACGCCUC | -2.16 ± 0.4 | 
31 | CGAUAGCAAUAUUACGUGAU | -3.02 ± 0.1 | -0.808 ± 0.088
32 | UACAAGCAAUAUUACGUCAC | -3.37 ± 0.2 | -2.41 ± 0.17
33 | GGGGAGCAAUAUUACGGUAU |  | -2.23 ± 0.39
34 | UUUUAGCAAUAUUACGUCAC | -2.38 ± 0.37 | 
35 | ACAGAGCAAUAUUACGGUUU | -3.11 ± 0.2 | -1.81 ± 0.16
36 | GUGUAGCAAUAUUACGCAAC |  | -0.636 ± 0.23
37 | ACGCAGCAAUAUUACGAGCC | -2.97 ± 0.2 | -1.84 ± 0.17
38 | ACUGAGCAAUAUUACGUAAC | -4.25 ± 0.25 | -3.36 ± 0.3
39 | UCCGAGCAAUAUUACGAUGU | -3 ± 0.22 | -1.87 ± 0.17
40 | AUAGAGCAAUAUUACGCUAA | -1.33 ± 0.13 | -0.315 ± 0.18
41 | UAUUAGCAAUAUUACGGCGA | -0.206 ± 0.15 | -0.325 ± 0.16
42 | CUAUAGCAAUAUUACGGGGG | -2.16 ± 0.23 | -3.09 ± 0.43
43 | GAUGAGCAAUAUUACGCUCA | -1.18 ± 0.41 | -0.934 ± 0.42
44 | CCCCAGCAAUAUUACGGUGG | -4.09 ± 0.2 | -1.86 ± 0.11
45 | ACCGAGCAAUAUUACGUUCG | -3.19 ± 0.48 | -1.76 ± 0.23
46 | ACUAAGCAAUAUUACGGACC | -1.4 ± 0.15 | -0.596 ± 0.19
47 | AUGUAGCAAUAUUACGUCCU | -0.674 ± 0.13 | 0.252 ± 0.19
48 | UUCAAGCAAUAUUACGGCGU | -1.61 ± 0.094 | -0.465 ± 0.12
49 | UUGUAGCAAUAUUACGGUAU | -0.659 ± 0.35 | 
50 | UUUCAGCAAUAUUACGACCU | -1.28 ± 0.25 | -0.834 ± 0.43

Row | Sequence | self-splicing fitness (ln) (30 °C) | self-splicing fitness (ln) (37 °C)
51 | AGGAAGCAAUAUUACGUCAU | -3.32 ± 0.16 | -0.295 ± 0.12
52 | AUAGAGCAAUAUUACGAGGG | -3.05 ± 0.25 | -1.56 ± 0.26
53 | AAAUAGCAAUAUUACGGCUG | -0.833 ± 0.15 | -0.0574 ± 0.18
54 | CUCCAGCAAUAUUACGGCCG | -1.3 ± 0.1 | -0.777 ± 0.14
55 | CCUCAGCAAUAUUACGUCUC | -3.73 ± 0.24 | 
56 | CCGAAGCAAUAUUACGAGCC | -3.7 ± 0.26 | -2.8 ± 0.23
57 | AAACAGCAAUAUUACGUGCA | -1.19 ± 0.068 | -0.303 ± 0.074
58 | AAACAGCAAUAUUACGGCGG | -2.4 ± 0.088 | -1.35 ± 0.092
59 | CAGUAGCAAUAUUACGCUUC | -3.45 ± 0.3 | -2.74 ± 0.28
60 | UCUCAGCAAUAUUACGGCCA | -2.65 ± 0.19 | -1.69 ± 0.21
61 | CGGGAGCAAUAUUACGUCAG | -3.08 ± 0.19 | -2.34 ± 0.24
62 | GGGAAGCAAUAUUACGUCGA | -0.874 ± 0.12 | -0.739 ± 0.13
63 | UGAAAGCAAUAUUACGGACA | -0.0695 ± 0.088 | -0.28 ± 0.096
64 | CUAUAGCAAUAUUACGGUCC | -3.69 ± 0.4 | -2.56 ± 0.46
65 | CUCUAGCAAUAUUACGGCAC | -2.61 ± 0.26 | 
66 | CUGUAGCAAUAUUACGUGAC | -0.572 ± 0.098 | -0.0647 ± 0.16
67 | CAGCAGCAAUAUUACGUUCC |  | -2.13 ± 0.25
68 | CUAUAGCAAUAUUACGAGAU | -3.91 ± 0.42 | 0.449 ± 0.18
69 | AGUUAGCAAUAUUACGAUCG | -0.446 ± 0.1 | -0.0837 ± 0.12
70 | UCAUAGCAAUAUUACGGGCA | -1.29 ± 0.11 | -0.42 ± 0.1
71 | CUACAGCAAUAUUACGGCGU | -3.49 ± 0.13 | -2.94 ± 0.19
72 | UGACAGCAAUAUUACGAUAU | -2.67 ± 0.16 | -1.9 ± 0.14
73 | CGUAAGCAAUAUUACGGCUC |  | -0.977 ± 0.42
74 | CAACAGCAAUAUUACGGGAA | -2.48 ± 0.16 | -2.04 ± 0.14
75 | UUUCAGCAAUAUUACGUCCG | -1.59 ± 0.14 | -1 ± 0.21

Row | Sequence | self-splicing fitness (ln) (30 °C) | self-splicing fitness (ln) (37 °C)
76 | CAACAGCAAUAUUACGCCAC | -3.26 ± 0.37 | -2.39 ± 0.31
77 | AGUAAGCAAUAUUACGCCCC | 0.393 ± 0.41 | -1.15 ± 0.36
78 | GGAGAGCAAUAUUACGCGUU | -2.46 ± 0.28 | -1.82 ± 0.32
79 | UUGCAGCAAUAUUACGAACC | -1.76 ± 0.45 | 
80 | ACAGAGCAAUAUUACGAGAG |  | -2.6 ± 0.28
81 | CACAAGCAAUAUUACGGGUA | -1.26 ± 0.07 | -0.601 ± 0.076
82 | GCUUAGCAAUAUUACGCAUG | -2.06 ± 0.27 | -0.0774 ± 0.2
83 | CAGAAGCAAUAUUACGUCUA | -0.102 ± 0.07 | 0.782 ± 0.11
84 | UCGCAGCAAUAUUACGAAGC | -3.52 ± 0.27 | -2.25 ± 0.25
85 | AAAUAGCAAUAUUACGUGUC | -3.4 ± 0.19 | -3.29 ± 0.25
86 | CAGUAGCAAUAUUACGGUAA | -3.19 ± 0.31 | -1.57 ± 0.22
87 | AAAAAGCAAUAUUACGCUUG | -1.69 ± 0.087 | -0.744 ± 0.1
88 | CUACAGCAAUAUUACGGAAU | -4.13 ± 0.32 | -3.3 ± 0.26
89 | UGUAAGCAAUAUUACGCGAA | -2.68 ± 0.14 | -1.33 ± 0.17
90 | CGAAAGCAAUAUUACGUCAU | -4.71 ± 0.36 | -0.631 ± 0.14
91 | CGGGAGCAAUAUUACGGCUC | -3 ± 0.3 | -2.12 ± 0.42
92 | GGCUAGCAAUAUUACGGACU | -0.601 ± 0.081 | 0.198 ± 0.098
93 | CAAGAGCAAUAUUACGAUAA | -3.21 ± 0.22 | -1.79 ± 0.18
94 | UGCCAGCAAUAUUACGCCCG | -0.317 ± 0.12 | 0.404 ± 0.14
95 | UGCGAGCAAUAUUACGUUGU | -2.79 ± 0.18 | -3.05 ± 0.27
96 | UUUUAGCAAUAUUACGCGGU |  | -1.53 ± 0.45
97 | UGCUAGCAAUAUUACGGCAG | -2.52 ± 0.12 | -1.1 ± 0.13
98 | UCGGAGCAAUAUUACGGAUC | -3.21 ± 0.43 | 
99 | CGUUAGCAAUAUUACGCAUA |  | -1.37 ± 0.23
100 | CGGUAGCAAUAUUACGAUAC | -2.53 ± 0.22 | 
